Results: patent US20200131474A1, “METHODS AND COMPOSITIONS FOR OCULAR CELL THERAPY” (Novartis AG, priority 2018, published 2020)

Legend:
CD8+ T-cells = assay: LSC/T-cell reaction assay (gene edited LSCs co-cultured with CD8+ T-cells); assay type: cell-based, human; settings: B2M/HLA-Class I negative edited LSCs co-cultured 10 days with CD8+ T-cells from 4 donors
Protocol: An LSC/T-cell assay was performed in flat bottom 96well synthemax coated plates in duplicates and incubated in 5% CO2 at 37° C. for 10 days. RPMI-1640 supplemented with HEPES (100 μM), non-essential aas (10×), sodium pyruvate (10 mM), 2-Mercapthoethanol (10×), 10% FBS and 1% Penicillin-Streptomycin (Gibco by Life Technologies) was used as medium for co-culture. Alternatively, RPMI-1640 supplemented with HEPES (10 mM), non-essential aas (1×), sodium pyruvate (1 mM), 2-Mercapthoethanol (1×), 10% FBS and 1% Penicillin-Streptomycin (Gibco by Life Technologies) was used as medium for co-culture.
One day before co-culture, LSCs (stimulator cells) were passed and cultured to a confluency of around 70% (30′000-50′000 cells) and cultured with LSC medium including compound. On day two, peripheral blood mononuclear cells (PBMC) were separated using EDTA blood with the Ficoll-Paque method (GE Healthcare Life Sciences, cat #17-1440-03). […]
After 10 days, CD8+ cells were transferred to a U-bottomed 96-well plate and washed 3 times using autoMAC rinsing solution (Miltenyi Biotec, Cat #130-091-222) including MACS BSA stock solution (Miltenyi Biotec, Cat #130-091-376). Cells were measured on a BD LSRFortessa X-20. FACS data were analyzed using BD FACSDiva software and FlowJo software.

[1] = test system: genomic DNA purified from male human peripheral blood mononuclear cells; assay: Biochemical method for potential off-target genomic sites cleaved by Cas9 and B2M guides; settings: guide concentration of 64 nM
Excerpt: A biochemical method (See, e.g., Cameron et al., Nature Methods. 6, 600-606; 2017) was used to determine potential off-target genomic sites cleaved by Cas9 and selected B2M guides.

[2] = test system: potential off-target sites; assay: Off-target activity detection in limbal stem cells by targeted PCR and NGS; assay type: cell-based, human; settings: edited LSCs vs non-edited PBMCs; positive sites of sequenced loci
Protocol: Potential CRISPR/Cas9-mediated cutting sites identified above were evaluated using targeted PCR and NGS in genome-edited expanded LSCs.
Selected sgRNAs (SEQ ID NO: 120, 162, 166, 167, 171, and 175) were further analyzed by amplicon sequencing in edited and non-edited cells. Primers flanking the potential off-target sites for each guide were used to detect indels by NGS analysis in edited LSCs and non-edited peripheral blood mononuclear cells. Sites that had either (1) a difference in mean indel percentage between edited and unedited cells greater than 0.5%; or (2) a p value less than 0.05 between edited and unedited indel were further analyzed. NGS sequence reads for such sites were assessed for characteristic indel patterns near the putative Cas9 cut site.

[3] = test system: beta-2-microglobulin gene; assay: CRISPR/Cas9-mediated deletion of B2M in LSCs by nucleofection, FACS analysis; assay type: cell-based, human; settings: Cas9 protein (SEQ ID NO: 107):sgRNA 1:10 nucleofection, LSCs passage 0, FACS
Protocol: The sgRNA ID SEQ NO 120 was tested for the ability to reduce or eliminate expression of B2M in LSCs using a nucleofection approach as follows.
LSCs at passage 0 were trypsinized with TryLE™Express Enzym (ThermoFisher, Cat #12605010) for 15 min in 5% CO2 at 37° C. After scraping the cells, the reaction was stopped by using cell culture medium containing 10% Serum and transferred to a falcon tube. After counting cells using Vi-cell 200′000 cells were prepared per reaction by transferring 200′000 cells in single tubes and centrifuged at 1000 rpm for 5 min.
The supernatant was aspirated using manually pipetting to avoid cell loss and the cells were resuspended in the Stem cell nucleofector solution II (Lonza, Cat #VPH-5022). Resuspend cells in nucleofector solution immediately before adding the Cas9 protein:sgRNA mixture. A stock of 100 μM (3.23 μg/μl) was prepared resuspending 5.1 nanomoles of single-guideRNA (sgRNA) in 51 μl 10 mM Tris buffer pH7.4. […]
In order to prevent cells sticking to the wall, collection tubes were filled with FACS buffer for 30 minutes before the sort and aspirated before adding the collection medium. […] FACS data were analyzed using BD FACSDiva software and FlowJo software.

B1: 1-CR004366: gRNA targeting B2M (Dharmacon); targeting domain GAGUAGCGCGAGCACAGCUA (SEQ ID NO: 108); sgRNA SEQ ID NO: 120 (nucleic acid)
guide: GAGUAGCGCGAGCACAGCUAGUUUUAGAGCUAGAAAUAGCAAGUUAAAAUAAGGCUAGUCCGUUAUCAACUUGAAAAAGUGGCACCGAGUCGGUGCUUUU
modifications: listed as RNA, chemistry not given here
- T-cell immunoresponse (CD8+ T-cells): almost completely eliminated
- off-target Site_Count [1]: 69
- Number of sites positive for off-target activity in LSCs [2]: zero
- LSCs with deletion of B2M and elimination of HLA A, B and C (cells not expressing B2M) [3]: about 70%
